Patent publication US10369195B2, “Methods and compositions for preventing and treating damage to the heart” (MandalMed, Inc., priority 2016, dated 2019)
“Also recorded” adds a separate entry of the source.

What was measured:
[1] = tested on: rat ischemia-reperfusion model of MI; assay: Intraventricular (LV) pressure / hemodynamic measurements after ischemia-reperfusion MI; format: in vivo; details: for LVEDP, benefit relative to PBS / LVSP, benefit relative to PBS / mean ABP, benefit relative to PBS: 8 weeks post-MI, Gal-3C 600 μg/day days 4-10, losartan 8 mg/kg/day in drinking water 56 days
Protocol: (§1) Pre-filled and primed mini-osmotic pumps were implanted a few minutes before surgical induction of MI and Gal-3C treatment continued for 7 days (denoted as “early window”) as in the pilot study described above. The effect of treatment on cardiac function was evaluated by serial echocardiography on day 0 pre-MI, 2 and 28 days post-MI, and LV pressure measurement at 28 days. For the early window, groups consisted of sham surgery with PBS, sham with 600 μg/day Gal-3C, MI with PBS, MI with 200 μg/day Gal-3C, and MI with 600 μg/day Gal-3C.
Serial echocardiography was performed at 2, 28, and 56 days (8 weeks) post-MI and terminal intraventricular pressure catheter measurements were obtained. The effect on cardiac function from losartan was compared to the effect of Gal-3C that included data from the 12 animals in the Gal-3C and the 12 animals in the vehicle-only group that were presented in FIG. 9 and FIG. 10. […] The results described herein indicate that treatment with Gal-3C post-MI would be more beneficial on recovery and preservation of heart function compared to treatment with losartan or another ARB alone.

[2] = tested on: rat ischemia-reperfusion model of MI; assay: Serial echocardiography (ejection fraction, ESV, EDV) after ischemia-reperfusion MI; format: in vivo; details: for EF, benefit relative to PBS: out to 8 weeks post-MI, Gal-3C 600 μg/day days 4-10, losartan 8 mg/kg/day in drinking water 56 days
Protocol: Animal experiments to test the therapeutic potential of Gal-3C in the preservation of post-MI cardiac function were performed using surgical induction of MI in rodents and functional evaluation of treatment as previously described (61-66). To most accurately model cardiac damage experienced by MI patients, a well-established ischemia-reperfusion procedure was used in which the left anterior descending coronary artery (LAD) of rats was occluded for 25 min followed by restoration of blood flow (67). This standard MI model is more clinically relevant than permanent LAD ligation models because the reperfusion experienced after post-MI angioplasty not only limits the size of the infarct, but paradoxically introduces free radical damage, and is well validated as a model for post-MI heart failure experimental therapies (68).
Experiments were performed according to the UCSF guidelines for rodent survival surgery and the Guide for the Care and Use of Laboratory Animals of the US National Institutes of Health. Male Sprague-Dawley rats (age 10-12 weeks) were anesthetized with isoflurane (2%), received analgesics (buprenorphine (0.1 mg/kg), subcutaneous injection) pre- and post-operation, and underwent ischemia-reperfusion MI involving temporary (25 minutes) occlusion of the left anterior descending coronary artery (LAD) to produce regional moderate myocardial ischemia.
Briefly, rats were ventilated to a small animal volume-controlled ventilator (Harvard Rodent Ventilator, Model 683, South Natick, Mass.), and the heart was exposed via thoracotomy. Occlusion proceeds with a 7-0 nonabsorbable surgical suture passed under the LAD 2-3 mm from tip of the normally positioned left auricle and tied around a 1-mm section of PE-50 tubing, tightening with an artery clamp to temporarily occlude the LAD. After occlusion for 25 minutes, reperfusion was allowed to the formerly ischemic bed. The chest was then closed with removal of excess fluid and air from the chest cavity. All animals were monitored post-operation until they became ambulatory. The mortality during MI procedure was 12%.
The highest dose, 600 μg/rat/day, and the lowest dose, 200 μg/rat/day, were chosen for continued study, representing approximately 2- and 5.5-fold higher doses based on body surface area of rats than was used in the multiple myeloma study of Gal-3C in mice (70). Groups of rats (n=10) were treated with low (200 μg/day) and high (600 μg/day doses of Gal-3C or with PBS-lactose (vehicle control) administered over 0-6 days post-MI (“early window”; primed pumps were implanted several minutes before the MI procedure on day 0). These groups were designed to be sufficiently powered to detect potentially statistically significant improvement from Gal-3C treatment.
as §1
In a subsequent experiment, the high dose Gal-3C and the PBS control were administered by Alzet pump over a delayed delivery window of from 4 days until 10 days post-MI (denoted as “delayed window”) to rats that had been subjected to the same ischemia-reperfusion procedure as described in Example 2 above. Delayed treatment might better enable fibrotic repair of the infarct while preventing wall rupture. […]

[3] = tested on: rat ischemia-reperfusion model of MI; assay: Interstitial (non-scar) border zone fibrosis from Sirius red-stained heart sections; format: in vivo; details: delayed window, 600 μg/day
Excerpt: (§2) After rats in the delayed treatment study were euthanized, hearts were harvested and sectioned for Masson's trichrome and Sirius red staining with quantitative image analysis to assess remodeling. Rather than using an optimized approach for infarct size measurement in permanent ligation rat models (64), it was confirmed that in the ischemia-reperfusion MI model, a volumetric infarct sizing approach (i.e., % area in the tissue sections that was scarred) would be more accurate. Using this approach for analysis of Masson's trichrome staining, it was shown that the infarct size was considerably (>2-fold) reduced in Gal-3C-treated (600 μg/day) rats, a difference that achieved significance with Gal-3C treatment in the delayed window (FIG. 8A).
Quantitative histology of Sirius red staining for interstitial fibrosis was performed on tissue sections with the most scar from each heart as described above in Example 3 using ImageJ.

[4] = tested on: xenograft model of human multiple myeloma; details: mice; 30 μg/day by ALZET mini-osmotic pumps; cited from earlier work
[5] = tested on: rat ischemia-reperfusion model of MI; assay: Infarct size from Masson's trichrome-stained heart sections (volumetric, % area scarred); format: in vivo; details: 600 μg/day
Excerpt: as §2
As described in Example 3 above, rats were euthanized at 8 weeks post-MI, hearts were harvested and sectioned for Masson's trichrome and Sirius red staining with quantitative image analysis using a volumetric infarct sizing approach (i.e., % area in the tissue sections that was scarred) for analysis of Masson's trichrome staining to calculate the size of the primary infarct.

[6] = tested on: rat ischemia-reperfusion model of MI; assay: Pilot dose-finding study: hydroxyproline assay of collagen in the left ventricle after ischemia-reperfusion MI; format: in vivo; details: 100, 200, 400, 600 μg/day by osmotic pump from day 0 for 7 days; vs vehicle; n=2-3
Protocol: Animal experiments to test the therapeutic potential of Gal-3C in the preservation of post-MI cardiac function were performed using surgical induction of MI in rodents and functional evaluation of treatment as previously described (61-66). To most accurately model cardiac damage experienced by MI patients, a well-established ischemia-reperfusion procedure was used in which the left anterior descending coronary artery (LAD) of rats was occluded for 25 min followed by restoration of blood flow (67). […]
Briefly, rats were ventilated to a small animal volume-controlled ventilator (Harvard Rodent Ventilator, Model 683, South Natick, Mass.), and the heart was exposed via thoracotomy. […] All animals were monitored post-operation until they became ambulatory. […]
A pilot dose-finding study was performed to determine Gal-3C levels reducing fibrosis, with collagen levels in heart tissue extracts as surrogate endpoints. […] It was determined that an equivalent to the mouse dose for use in rats of 250-300 g/body weight based on m^2 of average body surface area of the two species as approximately 105 μg/day. […]

[7] = tested on: Primary human cardiac fibroblasts; assay: TGFβ1-induced differentiation of primary cardiac fibroblasts to myofibroblasts (immunoblots of SMA and tensin 1); format: cell-based
Protocol: Galectin-3 was purified on lactosyl-sepharose from recombinant E. coli pelleted from 40 L of culture, collagenase digested, and then Gal-3C was isolated on lactosyl sepharose as previously described (41). Primary human cardiac fibroblasts (Cell Applications, San Diego, Calif.) were purchased and cultured as per the vendor's recommendations. 200,000 cells at passage 2-3 were cultured in 6-well plates until confluent, starved for 48 h and then induced to differentiate to myofibroblasts by treatment with […] TGFβ1 for 48-72 h. Varying concentrations of Gal-3C were also incubated with the cells. The cells were harvested, lysates prepared, and total protein quantified with a BCA assay (Pierce/Thermo). A total of […] protein was analyzed per condition by immunoblots using primary Abs against smooth muscle actin (SMA) and tensin 1 (Sigma-Aldrich).

[8] = Gal-3C 600 μg/day days 4-10 vs losartan 8 mg/kg/day 56 days, 15/group
[9] = delayed window, 600 μg/day, 8 weeks, vs controls, n=12/group
[10] = delayed window (4-10 days post-MI), 600 μg/day, 28 days post-MI, vs vehicle
[11] = delayed window Gal-3C, 8 weeks (day 56) post-MI, expanded groups 15/group (FIG. 12)
[12] = delayed window, 600 μg/day, 8 weeks (day 56) post-MI, vs vehicle, n=12/group
[13] = early window (0-6 days post-MI), 200 and 600 μg/day, 28 days post-MI, vs PBS
[14] = TGFβ1 5 or 15 mg/ml for 48-72 h, varying concentrations of Gal-3C

## CCCCc1nc(Cl)c(CO)n1Cc1ccc(-c2ccccc2-c2nn[nH]n2)cc1 [losartan, reference compound]
[1]; 15/group
  LVEDP, benefit relative to PBS: no significant benefit
  LVSP, benefit relative to PBS: no significant benefit
  mean ABP, benefit relative to PBS: no significant benefit
[2]; 15/group
  EF, benefit relative to PBS: no significant benefit

B1: Gal-3C: N-terminally truncated form of full length galectin-3, lacking the amino-terminal domain but retaining carbohydrate binding ability; 143 carboxy-terminal residues, SEQ ID NO: 3 (protein)
chain: GAPAGPLIVPYNLPLPGGVVPRMLITILGTVKPNANRIALDFQRGNDVAFHFNPRFNENNRRVIVCNTKLDNNWGREERQSVFPFESGKPFKIQVLVEPDHFKVAVNDAHLLQYNHRVKKLNEISKLGISGDIDITSASYTMI
[3]; 8 weeks post-MI, n=12/group
  reduction of interstitial fibrosis relative to vehicle-only controls: roughly 50%
[3]; 8 weeks post-MI, n=12/group, P=0.0003 vs PBS-only
  interstitial fibrosis (Sirius red), mean +/- SD: 2.4+/−1.3%
[3]; 28 days post-MI
  reduction of interstitial fibrosis vs vehicle-only controls: ~65%
[1]; 15/group
  LVEDP, benefit relative to PBS: statistically significant benefit
  LVSP, benefit relative to PBS: statistically significant benefit
  mean ABP, benefit relative to PBS: statistically significant benefit
[1]; [8]
  LVEDP, benefit relative to losartan: statistically significant benefit
  LVSP, benefit relative to losartan: statistically significant benefit
[1]; delayed window Gal-3C, 8 weeks, expanded groups 15/group (FIG. 13)
  dP/dt max and dP/dt min: did not reach significance
[1]; [9]
  LVEDP: reached significance
  LVSP: reached significance
  dP/dt max: did not reach significance
  dP/dt min: did not reach significance
  mean ABP: reached significance
[1]; delayed window, 600 μg/day, 28 days, vs vehicle
  all five hemodynamic parameters (mean ABP, LVSP, LVEDP, dP/dt max, dP/dt min): statistically significant improved
[1]; early window, 200 and 600 μg/day, 28 days, vs PBS
  intraventricular pressure measurement (mean ABP, LVSP, LVEDP, dP/dt max, dP/dt min): did not reach statistical significance
[1]; early window, 28 days
  hemodynamic parameters (mean ABP, dp/dt max and min), 600 μg/day compared to 200 μg/day: Trends to greater improvement
[4]
  efficacy in xenograft model of human multiple myeloma: good efficacy
[2]; [8]
  EF, benefit relative to losartan: statistically significant benefit
  ESV, benefit relative to losartan: statistically significant benefit
[2]; [10]
  ESV: significant benefit; also recorded: statistically significant improvements
  LV EDV: no benefit
  LV ejection fraction: significant benefit; also recorded: statistically significant improvements
[2]; [11]
  EDV: beneficial effect
  ESV: beneficial effect
[2]; delayed window, 600 μg/day
  ejection fraction at 8 weeks compared to 4 weeks in treated animals: trend but not a statistically significant increase
[2]; [12]
  EDV: significant benefit
  ESV: beneficial effect
  ejection fraction: beneficial effect
[2]; [13]
  LV end diastolic volume (EDV): no benefit
  end systolic volume (ESV): profound benefit
  left ventricular ejection fraction: profound benefit
[2]; early window treatment, 2 days post-MI
  cardiac function by echocardiography (ejection fraction, ESV, EDV): no benefit observed
[2]; 15/group
  EF, benefit relative to PBS: statistically significant benefit
[5]; 28 days post-MI, significant in the delayed window
  reduction of infarct size: > 2 fold
[5]; delayed window, 8 weeks post-MI
  infarct size vs PBS group: significantly smaller
[6]
  reduction of collagen levels in the LV (hydroxyproline assay): 20-35%
[7]; Gal-3C 4-20 μg/ml, TGF1β 15 μg/ml
  differentiation to myofibroblasts induced by TGF1β (decreased expression of tensin-1 and SMA): inhibited the differentiation to myofibroblasts
[7]; [14]
  expression of SMA (smooth muscle actin), immunoblot: inhibited expression
  expression of tensin 1, immunoblot: inhibited expression
